Several values for one entry are separate records, joined by “and”; a condition that tells them apart may be missing. Identical values can stand only once. Like-named read-outs stand apart in the source and are kept apart here.
Columns and labels:
[1] = biological target: Recombinant human IL-17A (human) (UniProt Q16552); experiment: SPR
[2] = biological target: Recombinant human IL-17A (human) (UniProt Q16552); experiment: SPR; remark: listed apart in the source
[3] = biological target: Recombinant human IL-17A (human) (UniProt Q16552); experiment: SPR, IL-17A immobilised, Fab as analyte
[4] = biological target: Recombinant human IL-17A (human) (UniProt Q16552); experiment: SPR; remark: listed apart in the source
[5] = biological target: CR8071 lambda light chain E124Q_T131R (L1 of designs 3971, 3972 and 3987, system C); experiment: SMCA: H1, L1, H2, L2 co-expressed, protein A, LC-MS
[6] = biological target: CR8071 lambda light chain L1 E124Q_T131R (designs 3971 and 3972, System C); experiment: as above
[7] = biological target: CR8071 lambda light chain L1 with E124Q_T131K; experiment: SMCA System C: four chains co-expressed, protein A, LC-MS
[8] = biological target: Pertuzumab kappa light chain S131K_L135K; experiment: LCCA, SPR tag read-out
[9] = biological target: Pertuzumab kappa light chain S131R_V133G_S176R_T178A (L2), HA-tagged; experiment: LCCA, SPR of light-chain tags
[10] = biological target: Pertuzumab kappa light chain S131R_V133G_S176R_T178A (L2), HA-tagged; experiment: LCCA, SPR of light-chain tags; remark: listed apart in the source
[11] = biological target: Pertuzumab kappa light chain S131K_V133G_S176R_T178A (L2), HA-tagged; experiment: LCCA, SPR of light-chain tags
[12] = biological target: Pertuzumab kappa light chain V133G_S176R_T178A (L2), HA-tagged; experiment: LCCA, SPR of light-chain tags
[13] = biological target: Pertuzumab kappa light chain V133A_S176K_T178A (L2), HA-tagged; experiment: LCCA, SPR of light-chain tags
[14] = biological target: Pertuzumab kappa light chain V133G_S176R_T178A (L2), HA-tagged; experiment: LCCA, SPR of light-chain tags; remark: listed apart in the source
[15] = biological target: Pertuzumab kappa light chain V133A_S176K_T178A (L2), HA-tagged; experiment: LCCA, SPR of light-chain tags; remark: listed apart in the source
[16] = biological target: Pertuzumab kappa light chain V133G_S176D_T178E; experiment: LCCA, SPR
[17] = biological target: Pertuzumab kappa light chain V133G_S176D_T180E; experiment: LCCA, SPR
[18] = biological target: Pertuzumab kappa light chain V133G_S176D_T178E; experiment: LCCA, SPR; remark: listed apart in the source
[19] = biological target: Pertuzumab kappa light chain V133G_S176D_T180E; experiment: LCCA, SPR; remark: listed apart in the source
[20] = biological target: Pertuzumab kappa light chain V133G_L135W_S176D_T180E; experiment: LCCA, SPR tag read-out
[21] = biological target: CAT-2200 lambda light chain E124Q_T131K; experiment: LCCA, SPR
[22] = biological target: Pertuzumab kappa light chain Q124E_V133D_L135A; experiment: LCCA, SPR tag read-out
[23] = biological target: CAT-2200 lambda light chain T116F_S176F (L1), N-terminal FLAG tag; experiment: LCCA, SPR of light chain tags
[24] = biological target: Pertuzumab kappa light chain L135A (L2), N-terminal HA tag; experiment: LCCA, SPR of light chain tags
[25] = biological target: Pertuzumab kappa light chain T178F (L2), N-terminal HA tag; experiment: LCCA, SPR of light chain tags
[26] = biological target: Pertuzumab kappa light chain, wild type (L2), N-terminal HA tag; experiment: LCCA, SPR of light chain tags
[27] = biological target: Pertuzumab kappa light chain L135A (L2), N-terminal HA tag; experiment: LCCA, SPR of light chain tags; remark: listed apart in the source
[28] = biological target: Pertuzumab kappa light chain Q124E_V133D (L2), N-terminal HA tag; experiment: LCCA, SPR of light chain tags
[29] = biological target: CAT-2200 lambda light chain S176K_Y178K (L1), N-terminal FLAG tag; experiment: LCCA, SPR of light chain tags
[30] = biological target: CAT-2200 lambda light chain S176K_Y178R (L1), N-terminal FLAG tag; experiment: LCCA, SPR of light chain tags
[31] = biological target: Pertuzumab kappa light chain Q124E_V133D (L2), N-terminal HA tag; experiment: LCCA, SPR of light chain tags; remark: listed apart in the source
[32] = biological target: Pertuzumab kappa light chain Q124E_V133D (L2), N-terminal HA tag; experiment: LCCA, SPR of light chain tags; remark: listed apart in the source
[33] = biological target: Pertuzumab kappa light chain Q124E_Q160E_T180E (L2), N-terminal HA tag; experiment: LCCA, SPR of light chain tags
[34] = biological target: CAT-2200 lambda light chain S176K_Y178L (L1), N-terminal FLAG tag; experiment: LCCA, SPR of light chain tags
[35] = biological target: Pertuzumab kappa light chain Q124E_Q160E_T180E (L2), N-terminal HA tag; experiment: LCCA, SPR of light chain tags; remark: listed apart in the source
[36] = biological target: Pertuzumab kappa light chain Q124E_Q160E_T180E (L2), N-terminal HA tag; experiment: LCCA, SPR of light chain tags; remark: listed apart in the source
[37] = biological target: Recombinant HER2 protein (HER2-ECD) (UniProt P04626); experiment: SPR, Fab captured via anti-penta-His, HER2 as analyte
[38] = biological target: Recombinant HER2 protein (HER2-ECD) (UniProt P04626); experiment: SPR
[39] = biological target: Pertuzumab light chain (kappa) V133G_S176D_T178E, HA-tagged; experiment: LCCA
[40] = biological target: Pertuzumab light chain (kappa) V133G_S176D_T180E, HA-tagged; experiment: LCCA
[41] = biological target: Pertuzumab light chain (kappa) V133G_S176D_T178E, HA-tagged; experiment: LCCA; remark: listed apart in the source
[42] = biological target: Pertuzumab light chain (kappa) V133G_S176D_T180E, HA-tagged; experiment: LCCA; remark: listed apart in the source

CAT-2200 Fab heterodimer (H1L1) with H1 S188K and L1 S176D_Y178E
Change in KD of H1L1 Fab vs wild type [1]: -0.13 | Change in KD of H1L1 Fab vs wild type, -(log(KD design)-log(KD wt)) [1]: -0.13 | Kd [1]: 0.37 nM | Kd [2]: 0.37 nM

CAT-2200 Fab heterodimer (H1L1) with H1 S188K and L1 S176E_Y178E
Change in KD of H1L1 Fab vs wild type [1]: -0.12 | Kd [2]: 0.36 nM

CAT-2200 Fab heterodimer (H1L1) with H1 V177I_S188K and L1 V133I_S176D_Y178E
Change in KD of H1L1 Fab vs wild type [1]: 0.08 | Kd [2]: 0.23 nM

CAT-2200 designed Fab heterodimer H1L1: H1 L143E_K145T_Q179E / L1 E124Q_T131R
Change in KD of H1L1 Fab vs wild type [1]: -0.14 | Kd [3]: 0.29 nM

CAT-2200 designed Fab heterodimer H1L1: H1 L143K / L1 K129T_V133D
Change in KD of H1L1 Fab vs wild type [1]: -0.09 | Kd [3]: 0.26 nM

CAT-2200 designed Fab heterodimer H1L1: H1 Q179K / L1 K129T_S180E
Change in KD of H1L1 Fab vs wild type [1]: -0.056 | Kd [3]: 0.24 nM

CAT-2200 designed Fab heterodimer H1L1: H1 S186R / L1 K129T_S180E
Change in KD of H1L1 Fab vs wild type [1]: -0.088 | Kd [3]: 0.26 nM

CAT-2200 wild type one-armed antibody (OAA), FLAG-tagged light chain
Kd [1]: 0.375 nM | Kd [4]: 0.366 nM

CAT-2200 wild type one-armed antibody (OAA), HA-tagged light chain
Kd [1]: 0.373 nM | Kd [4]: 0.35 nM

CAT-2200 wild type one-armed antibody (OAA), no tags
Kd [1]: 0.282 nM | Kd [4]: 0.287 nM

CR8071 heavy chain A139W_L143D_K145T (H1 of designs 3972 and 3987, system C)
% H1L1 Pairing [5]: 92.8% and 99.2% | Change in % H1L1 Pairing with respect to wild type [5]: 44.4% and 50.8%

CR8071 heavy chain H1 A139W_L143D_K145T (design 3972, System C)
% H1L1 Pairing [6]: 92.8% | Change in % H1L1 Pairing with respect to wild type [6]: 44.4%

CR8071 heavy chain H1 L143D_K145T (design 3971, System C)
% H1L1 Pairing [6]: 89% | Change in % H1L1 Pairing with respect to wild type [6]: 40.6%

CR8071 heavy chain H1 with L143D_K145T
% H1L1 Pairing [7]: 79.7% | Change in % H1L1 Pairing with respect to wild type [7]: 11.6%

CR8071 heavy chain H1 with L143E_K145T_Q179E
% H1L1 Pairing [7]: 84.7% | Change in % H1L1 Pairing with respect to wild type [7]: 36.3%

CR8071 heavy chain L143D_K145T (H1 of design 3971, system C)
% H1L1 Pairing [5]: 89% | Change in % H1L1 Pairing with respect to wild type [5]: 40.6%

Pertuzumab Fab heavy chain L124E_K145T
H2L2:H2L1 median scalar value [8]: 0.85 ln(ratio)

Pertuzumab Fab heavy chain L124E_K145T_Q179E_S186I_S188W (H2)
H2L2:H2L1 normalized median scalar value ln(r1/f1) [9]: 1.55 | H2L2:H2L1 normalized median scalar value ln(r1/f1) [10]: 1.24 | H2L2:H2L1 normalized median scalar value ln(r1/f1) [11]: 0.9

Pertuzumab Fab heavy chain L124E_S186I_S188W (H2)
H2L2:H2L1 normalized median scalar value ln(r1/f1) [12]: 1.19 | H2L2:H2L1 normalized median scalar value ln(r1/f1) [13]: 1.03 | H2L2:H2L1 normalized median scalar value ln(r1/f1) [14]: 0.94 | H2L2:H2L1 normalized median scalar value ln(r1/f1) [15]: 0.65

Pertuzumab Fab heavy chain L124R_S186R
H2L2:H2L1 normalized median scalar value ln(r1/f1) [16]: 1.18 | H2L2:H2L1 normalized median scalar value ln(r1/f1) [17]: 1.47 | H2L2:H2L1 normalized median scalar value ln(r1/f1) [18]: 1.04 | H2L2:H2L1 normalized median scalar value ln(r1/f1) [19]: 1.5 | H2L2:H2L1 median scalar value [20]: 0.23 ln(ratio) | H2L2:H2L1 normalized median ratio [21]: 26%

Pertuzumab Fab heavy chain L143I_S186K_V190F
H2L2:H2L1 median scalar value [22]: -0.49 ln(ratio)

Pertuzumab Fab heavy chain L143I_V190F (H2), ABD2-His6 tagged
H2L2:H2L1 normalized median ratio [23]: 38% | H2L2:H2L1 normalized median ratio [24]: 49% | H2L2:H2L1 normalized median scalar value ln(r1/f1) [24]: -0.04 | H2L2:H2L1 normalized median ratio [25]: 65% | H2L2:H2L1 normalized median scalar value ln(r1/f1) [25]: 0.62 | H2L2:H2L1 normalized median ratio [26]: 62% | H2L2:H2L1 normalized median scalar value ln(r1/f1) [26]: 0.49 | H2L2:H2L1 normalized median ratio [27]: 46% | H2L2:H2L1 normalized median scalar value ln(r1/f1) [27]: -0.16

Pertuzumab Fab heavy chain L143R (H2), ABD2-His6 tagged
H2L2:H2L1 normalized median ratio [28]: 86% | H2L2:H2L1 normalized median scalar value ln(r1/f1) [28]: 1.84 | H2L2:H2L1 normalized median ratio [29]: 21% | H2L2:H2L1 normalized median ratio [30]: 14% | H2L2:H2L1 normalized median ratio [31]: 82% | H2L2:H2L1 normalized median scalar value ln(r1/f1) [31]: 1.53 | H2L2:H2L1 normalized median ratio [32]: 79% | H2L2:H2L1 normalized median scalar value ln(r1/f1) [32]: 1.3

Pertuzumab Fab heavy chain L143R_V190F
H2L2:H2L1 median scalar value [22]: 1.25 ln(ratio)

Pertuzumab Fab heavy chain Q179K (H2), ABD2-His6 tagged
H2L2:H2L1 normalized median ratio [33]: 96% | H2L2:H2L1 normalized median scalar value ln(r1/f1) [33]: 3.21 | H2L2:H2L1 normalized median ratio [34]: 13% | H2L2:H2L1 normalized median ratio [29]: 9% | H2L2:H2L1 normalized median ratio [30]: 4% | H2L2:H2L1 normalized median ratio [35]: 87% | H2L2:H2L1 normalized median scalar value ln(r1/f1) [35]: 1.88 | H2L2:H2L1 normalized median ratio [36]: 91% | H2L2:H2L1 normalized median scalar value ln(r1/f1) [36]: 2.33

Pertuzumab Fab heavy chain S186K_V190F
H2L2:H2L1 median scalar value [22]: -0.45 ln(ratio)

Pertuzumab designed Fab heterodimer H2L2: H2 L45P_L124E_K145T_Q179E / L2 P44F_S131R_V133G_S176R
Kd [37]: 5.8 nM

Pertuzumab designed Fab heterodimer H2L2: H2 L45P_L143E_K145T_Q179E / L2 P44F_Q124K_T178R
Kd [37]: 6 nM

Pertuzumab designed Fab heterodimer H2L2: H2 Q39E_L124E_K145T_Q179E / L2 Q38R_S131R_V133G_S176R
Change in KD of H2L2 Fab vs wild type [38]: -0.0084 | Kd [37]: 7.9 nM

Pertuzumab designed Fab heterodimer H2L2: H2 Q39E_L143E_K145T_Q179E / L2 Q38R_Q124K_T178R
Change in KD of H2L2 Fab vs wild type [38]: 0.023 | Kd [37]: 7.4 nM

Pertuzumab heavy chain Fab construct L124R_S186K
H2L2:H2L1 normalized median scalar value ln(r1/f1) [39]: 1.12 | H2L2:H2L1 normalized median scalar value ln(r1/f1) [40]: 1.47 | H2L2:H2L1 normalized median scalar value ln(r1/f1) [41]: 1.22 | H2L2:H2L1 normalized median scalar value ln(r1/f1) [42]: 1.32

— patent US20190338048A1
